Measurements reported in article PMC4264193, “Structures of the Inducer-Binding Domain of Pentachlorophenol-Degrading Gene Regulator PcpR from Sphingobium chlorophenolicum” (International Journal of Molecular Sciences, 2014).

Biological target: the molecule itself
Assay: SEC-MALS; 200 ug of PcpR loaded on a BioSep-SEC-S 2000 column, eluted isocratically at 0.5 mL/min; UV, refractometer and Dawn EOS light scattering detectors; Zimm fit; calculated mass ~50 kD

B1: PcpR inducer-binding domain (residues from 85 to the C-terminus of PcpR) (domain or fragment, Sphingobium chlorophenolicum L-1, UniProt P52679 85-307, looked up)
chain: RSELRFDPGTSNRNFRIAASDFGQALMLPRLYATLEETAPQVRVTGVNLRHGPLVEELESGSIDIAFGGFPTLSAGIKTQTLFREEYVCVMRQSHPALTHGLDLEAFRQCRHIIVTAHEFNHVHEQVEARLLELLPPESIRFTTENFLVSAVIAEETDVILTIPSRLARWFANRGGLTIFPVPIELPSIEVKQYWHERYDKDPGNIWLRRVIAKIGFQNPPAE
notes: PcpR, LysR-type transcription factor of Sphingobium chlorophenolicum L-1; Cloned into pET30-LIC and expressed as a C-terminal HIS6X fusion protein; also called PcpR IBD; source: E. coli BL21(DE3), purified (nickel-nitrilotriacetate column, Mono Q anion exchange)
  stoichiometry N: 2
